Assay results as given in IntAct's records for PubMed 15009215.

B1: Emerin (Homo sapiens), P50402 (parent)
chain: MDNYADLSDTELTTLLRRYNIPHGPVVGSTRRLYEKKIFEYETQRRRLSPPSSSAASSYSFSDLNSTRGDADMYDLPKKEDALLYQSKGYNDDYYEESYFTTRTYGEPESAGPSRAVRQSVTSFPDADAFHHQVHDDDLLSSSEEECKDRERPMYGRDSAYQSITHYRPVSASRSSLDLSYYPTSSSTSFMSSSSSSSSWLTRRAIRPENRAPGAGLGQDRQVPLWGQLLLFLVFVIVLFFIYHFMQAEEGNPF

Variants of: B1
Conditions: with bclf1_human BCLAF1, Q9NYF8
Chain of bclf1_human BCLAF1, Q9NYF8 (Q9NYF8 whole entry): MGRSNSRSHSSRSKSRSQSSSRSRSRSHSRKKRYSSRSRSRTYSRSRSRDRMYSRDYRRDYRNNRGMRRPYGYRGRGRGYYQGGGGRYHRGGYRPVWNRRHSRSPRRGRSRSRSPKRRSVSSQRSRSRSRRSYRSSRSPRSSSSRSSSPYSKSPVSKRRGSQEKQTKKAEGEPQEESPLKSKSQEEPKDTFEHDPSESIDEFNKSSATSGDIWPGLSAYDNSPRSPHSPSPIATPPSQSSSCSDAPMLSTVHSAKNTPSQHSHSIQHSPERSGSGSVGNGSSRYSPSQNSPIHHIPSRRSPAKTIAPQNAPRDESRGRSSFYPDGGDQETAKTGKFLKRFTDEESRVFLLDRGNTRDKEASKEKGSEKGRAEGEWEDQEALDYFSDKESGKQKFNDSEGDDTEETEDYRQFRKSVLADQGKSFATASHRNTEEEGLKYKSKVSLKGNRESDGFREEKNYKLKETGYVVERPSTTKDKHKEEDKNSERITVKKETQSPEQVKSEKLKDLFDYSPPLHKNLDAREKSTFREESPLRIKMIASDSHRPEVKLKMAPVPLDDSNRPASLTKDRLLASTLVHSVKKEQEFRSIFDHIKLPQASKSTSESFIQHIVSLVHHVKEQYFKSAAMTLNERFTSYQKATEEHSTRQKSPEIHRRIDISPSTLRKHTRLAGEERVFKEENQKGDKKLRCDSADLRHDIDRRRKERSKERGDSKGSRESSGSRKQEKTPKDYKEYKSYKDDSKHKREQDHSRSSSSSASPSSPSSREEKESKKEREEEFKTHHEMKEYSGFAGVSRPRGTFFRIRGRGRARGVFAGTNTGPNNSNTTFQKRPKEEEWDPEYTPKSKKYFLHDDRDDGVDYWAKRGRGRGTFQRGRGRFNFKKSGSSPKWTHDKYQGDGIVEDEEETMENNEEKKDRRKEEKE

| effect of a mutation on the interaction | Variant |
| --- | --- |
| decreasing interaction | I206A;R207A;E209A |
| decreasing interaction | S197A;S198A |
| decreasing interaction | S175A;S176A |
| decreasing interaction | S54F |
| decreasing interaction | L76A;K78A;E80A;L83A |
| decreasing interaction | S192A;S194A;S195A;S196A |
| decreasing interaction | G214A;L217A |
| decreasing interaction | R207A;P208A |
| decreasing interaction | R45A;R46A;R47A |
| decreasing interaction | D70A;D72A;Y74A |
